Biological target: T1, FcεRII (CD23, low affinity IgE receptor) (human, UniProt P06734 1-321)
T1 construct: whole, on cells
T1 sequence (looked up): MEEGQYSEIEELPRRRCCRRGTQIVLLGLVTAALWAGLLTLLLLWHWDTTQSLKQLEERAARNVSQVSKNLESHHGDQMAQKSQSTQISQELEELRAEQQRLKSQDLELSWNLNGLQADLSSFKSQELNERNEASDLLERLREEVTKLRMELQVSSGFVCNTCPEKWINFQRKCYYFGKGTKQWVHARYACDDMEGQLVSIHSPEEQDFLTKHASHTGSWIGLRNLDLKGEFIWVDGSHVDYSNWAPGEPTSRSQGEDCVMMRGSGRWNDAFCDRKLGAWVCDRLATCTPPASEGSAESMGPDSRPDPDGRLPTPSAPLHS
Assay: flow cytometry on human primary monocytes and U937 cells
Text: FIG. 3: Flow cytometric histograms showing HMW-MAA-IgE binding. A: Binding of chimaeric IgE to A375 melanoma tumour cells (left) but not to melanocytes (right). B: Binding of IgE to U937 monocytic cells (left) and to primary […] (right). Antibody binding was detected using a goat anti-human IgE-FITC antibody. C: Flow cytometric histograms showing HMW-MAA-IgG binding to A375 melanoma tumour cells (left) and U937 monocytic cells (right). Antibody binding was detected using a goat anti-human IgG-FITC antibody.
The interactions of anti-HMW-MAA antibodies with A375 melanoma tumour cells were analysed by flow cytometry and immunofluoresence. […] The IgE antibody also bound to FcεR-expressing human primary monocytes and cells of the monocytic cell line U937, which also express both IgE receptors, FcεRI and FcεRII at low densities (FIG. 3). The IgG1 antibody bound to the surface of A375 melanoma cells and U937 monocytic cells (FIG. 3C). […] Therefore, both chimaeric antibodies of known specificity could be engineered that recognised the expected tumour target and immune effector cells.

B1: chimeric anti-HMW-MAA IgE antibody (antibody)
heavy: QVKLQQSGGGLVQPGGSMKLSCVVSGFTFSNYWMNWVRQSPEKGLEWIAEIRLKSNNFGRYYAESVKGRFTISRDDSKSSAYLQMINLRAEDTGIYYCTSYGNYVGHYFDHWGQGTTVTVSSASTQSPSVFPLTRCCKNIPSNATSVTLGCLATGYFPEPVMVTWDTGSLNGTTMTLPATTLTLSGHYATISLLTVSGAWAKQMFTCRVAHTPSSTDWVDNKTFSVCSRDFTPPTVKILQSSCDGGGHFPPTIQLLCLVSGYTPGTINITWLEDGQVMDVDLSTASTTQEGELASTQSELTLSQKHWLSDRTYTCQVTYQGHTFEDSTKKCADSNPRGVSAYLSRPSPFDLFIRKSPTITCLVVDLAPSKGTVNLTWSRASGKPVNHSTRKEEKQRNGTLTVTSTLPVGTRDWIEGETYQCRVTHPHLPRALMRSTTKTSGPRAAPEVYAFATPEWPGSRDKRTLACLIQNFMPEDISVQWLHNEVQLPDARHSTTQPRKTKGSGFFVFSRLEVTRAEWEQKDEFICRAVHEAASPSQTVQRAVSVNPGK
light: DIELTQSPKFMSTSVGDRVSVTCKASQNVDTNVAWYQQKPGQSPEPLLFSASYRYTGVPDRFTGSGSGTDFTLTISNVQSEDLAEYFCQQYNSYPLTFGGGTKLEIKRTVAAPSVFIFPPSDEQLKSGTASVVCLLNNFYPREAKVQWKVDNALQSGNSQESVTEQDSKDSTYSLSSTLTLSKADYEKHKVYACEVTHQGLSSPVTKSFNRGEC
notes: Mouse 225.28s variable regions on human epsilon and kappa constant regions; expressed in HEK cells; also called chimaeric IgE; chimaeric 225.28s IgE
B1: binds.

From patent US20140322246A1 (IGEM THERAPEUTICS, published 2014)
